# Measured values published in paper PMC12594925 (Nature Communications, 2025).
# Key:
# MOR and DOR in MD-cells = MOR and DOR in MD-cells (Rattus norvegicus, UniProt P33535); assay: Ca2+ mobilization via Gqi5; type: cell-based; conditions: increase greater with DAMGO than morphine
# DOR in D-cells = DOR in D-cells (Rattus norvegicus, UniProt P33533)
# DOR-MOR = DOR-MOR (Rattus norvegicus, UniProt P33535); assay: cAMPinG1 cAMP inhibition assay, cells expressing DOR-MOR; type: cell-based; conditions: 7 µM forskolin then 50 nM DAMGO; MOR and DOR at 5-10 fluorescent spots/µm2
# Sequence of DOR-MOR (P33535 whole entry): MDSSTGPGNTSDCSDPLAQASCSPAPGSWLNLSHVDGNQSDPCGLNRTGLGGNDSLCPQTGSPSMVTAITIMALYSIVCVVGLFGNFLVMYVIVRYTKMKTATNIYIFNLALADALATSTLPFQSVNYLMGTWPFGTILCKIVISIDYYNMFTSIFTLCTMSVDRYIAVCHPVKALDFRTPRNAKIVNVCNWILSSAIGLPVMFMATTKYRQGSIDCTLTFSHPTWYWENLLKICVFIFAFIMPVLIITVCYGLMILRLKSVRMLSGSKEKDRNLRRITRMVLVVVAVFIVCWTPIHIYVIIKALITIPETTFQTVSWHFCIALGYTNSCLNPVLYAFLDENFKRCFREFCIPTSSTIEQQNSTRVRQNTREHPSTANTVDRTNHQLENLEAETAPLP
# MOR in M-cells = MOR in M-cells (Rattus norvegicus, UniProt P33535); assay: Ca2+ mobilization via Gqi5; type: cell-based; conditions: [FMax-Fb]/Fb of Fluo-4
# Sequence of MOR in M-cells (P33535 whole entry): as above
# KOR in K-cells = KOR in K-cells (Rattus norvegicus, UniProt P34975); assay: Ca2+ mobilization via Gqi5; type: cell-based
# Sequence of KOR in K-cells (P34975 whole entry): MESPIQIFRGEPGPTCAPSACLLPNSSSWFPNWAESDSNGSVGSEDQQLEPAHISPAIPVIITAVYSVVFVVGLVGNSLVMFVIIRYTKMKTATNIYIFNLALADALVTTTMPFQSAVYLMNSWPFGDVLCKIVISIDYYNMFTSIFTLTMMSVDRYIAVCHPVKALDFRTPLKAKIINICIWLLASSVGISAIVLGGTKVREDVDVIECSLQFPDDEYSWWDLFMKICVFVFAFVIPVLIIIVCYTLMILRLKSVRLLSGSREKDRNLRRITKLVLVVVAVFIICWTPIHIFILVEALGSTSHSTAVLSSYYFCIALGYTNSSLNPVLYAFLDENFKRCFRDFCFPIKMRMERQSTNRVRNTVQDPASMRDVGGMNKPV
# MOR-MOR (MM) homodimer = MOR-MOR (MM) homodimer (Rattus norvegicus, UniProt P33535); conditions: cited from earlier work
# Sequence of MOR-MOR (MM) homodimer (P33535 whole entry): as the sequence (P33535 whole entry) above
# DOR-KOR (DK) heterodimer = DOR-KOR (DK) heterodimer (Rattus norvegicus, UniProt P33533+P34975); assay: DK colocalization index, two-color single-molecule TIRF imaging; type: binding
# Sequence of DOR-KOR (DK) heterodimer (P33533 whole entry): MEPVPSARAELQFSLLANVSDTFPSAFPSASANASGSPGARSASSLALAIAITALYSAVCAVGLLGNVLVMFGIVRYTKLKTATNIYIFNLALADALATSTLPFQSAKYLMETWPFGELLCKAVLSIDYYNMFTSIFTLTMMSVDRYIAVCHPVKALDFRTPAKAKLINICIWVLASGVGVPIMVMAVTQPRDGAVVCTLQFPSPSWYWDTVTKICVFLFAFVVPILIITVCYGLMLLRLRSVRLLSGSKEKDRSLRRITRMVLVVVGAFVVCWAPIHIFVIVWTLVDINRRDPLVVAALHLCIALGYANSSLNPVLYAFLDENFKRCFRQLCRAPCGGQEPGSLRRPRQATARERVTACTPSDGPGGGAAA
# Sequence of DOR-KOR (DK) heterodimer (P34975 whole entry): as the sequence (P34975 whole entry) above
# DOR-MOR (DM) heterodimer = DOR-MOR (DM) heterodimer (Rattus norvegicus, UniProt P33533+P33535); type: binding; conditions: for Effect on DM heterodimerization: DOR and MOR at 0.5-1.0 spots/µm2
# Sequence of DOR-MOR (DM) heterodimer (P33533 whole entry): as the sequence (P33533 whole entry) above
# Sequence of DOR-MOR (DM) heterodimer (P33535 whole entry): as the sequence (P33535 whole entry) above
# DOR = DOR (Rattus norvegicus, UniProt P33533); assay: Colocalization of expressed TM peptides with WT-DOR; type: binding; conditions: all molecules expressed at 0.5–1.0 fluorescent spots/µm2
# Sequence of DOR (P33533 whole entry): as the sequence (P33533 whole entry) above
# MOR = MOR (Rattus norvegicus, UniProt P33535); assay: Colocalization of expressed TM peptides with WT-MOR; conditions: both expressed at 0.5–1.0 fluorescent spots/µm2
# Sequence of MOR (P33535 whole entry): as the sequence (P33535 whole entry) above
# Sequence of MOR and DOR in MD-cells (P33535 whole entry): as above
# Sequence of DOR in D-cells (P33533 whole entry): as the sequence (P33533 whole entry) above
compound,measurement,setting,value
C[C@@H](NC(=O)[C@@H](N)Cc1ccc(O)cc1)C(=O)NCC(=O)N(C)[C@@H](Cc1ccccc1)C(=O)NCCO [DAMGO],Ca2+ response to M-agonist compared to M-cells,MOR and DOR in MD-cells,enhanced Ca²⁺ responses
same,Ca2+ response to M-agonist,DOR in D-cells,No response was evident
same,DAMGO-induced cAMP concentration decrease via Gi,DOR-MOR,greater when DOR was co-expressed
same,Ca2+ signal induced by M-agonist,MOR in M-cells,induced comparable Ca²⁺ signals
same,Ca2+ response to M-agonist,KOR in K-cells,No response was evident
same,Effect on MM homodimerization and MM dimer lifetime,MOR-MOR (MM) homodimer,enhanced MM homodimerization and slightly elongated the MM dimer lifetime
"EL3-domain peptide of MOR: peptide with the MOR EL3 sequence (IIKALVTIPETTFQTV; UniProt P35372 303-318, looked up, fragment)",Blocking of DK heterodimerization (DK colocalization index),DOR-KOR (DK) heterodimer,"but not that of MOR, block DK heterodimerization"
same,Blocking of DM heterodimers,DOR-MOR (DM) heterodimer; soluble EL3-domain peptides (Supplementary Fig. 2b),failed to block DM heterodimers
"Nterm-TM1^MOR: TM1^MOR construct also containing amino acids 53-70 before the TM1 domain (GGRDSLCPPTGSPSMITAITIMALYSIVCVVGLFGNFLVMYVIVRYT; UniProt P35372 53-99, looked up, fragment)",Colocalization with WT-DOR,DOR,"colocalized with DOR, like the full-length MOR"
same,Effect on DM heterodimerization,DOR-MOR (DM) heterodimer,suppressed DM heterodimerization in an expression level-dependent manner
"TM1^DOR: DOR TM1 peptide expressed in the PM (ITALYSAVCAVGLLGNVLVMFGIVRYTKM; UniProt P41143 52-80, looked up, fragment)",Colocalization with WT-MOR,MOR,moderately colocalized with MOR
"TM1^MOR: membrane-integral peptide, MOR TM1 (amino acids 71-99), expressed in the PM (ITIMALYSIVCVVGLFGNFLVMYVIVRYT; UniProt P35372 71-99, looked up, fragment)",Colocalization with WT-DOR,DOR,"colocalized with DOR, like the full-length MOR"
same,Effect on DM heterodimerization,DOR-MOR (DM) heterodimer,suppressed DM heterodimerization in an expression level-dependent manner
